From US20220411504A1 (Janssen / Centocor, published 2022)
Like-named read-outs stand apart in the source and are kept apart here.

Assays:
recombinant human DLL3 [1] = molecular target: T1, recombinant human DLL3 (human, UniProt Q9NYJ7 27-492); assay: SPR (Biacore T200), antibody captured by goat anti-Fc, DLL3 titrated
T1 construct: also called DLL3 antigen; Delta-like protein 3
T1 sequence: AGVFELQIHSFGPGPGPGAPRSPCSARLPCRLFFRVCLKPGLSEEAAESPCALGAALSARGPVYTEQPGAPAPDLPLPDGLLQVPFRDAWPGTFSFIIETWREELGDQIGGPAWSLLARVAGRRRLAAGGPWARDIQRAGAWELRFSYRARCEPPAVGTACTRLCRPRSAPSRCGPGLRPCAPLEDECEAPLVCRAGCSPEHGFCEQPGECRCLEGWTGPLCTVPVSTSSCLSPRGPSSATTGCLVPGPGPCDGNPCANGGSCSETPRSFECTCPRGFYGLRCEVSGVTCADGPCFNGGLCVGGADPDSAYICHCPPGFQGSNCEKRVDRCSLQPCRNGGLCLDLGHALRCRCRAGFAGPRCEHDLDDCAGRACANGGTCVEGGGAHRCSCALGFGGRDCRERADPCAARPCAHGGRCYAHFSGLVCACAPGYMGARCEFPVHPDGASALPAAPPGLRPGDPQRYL

[2] = molecular target: T2, Human CD3 epsilon (CD3ε) of the T cell receptor complex on cells (human, UniProt P07766 23-207); assay: flow cytometry on human pan T cells
T2 construct: On Jurkat cells and primary human (pan) T cells; also called T-cell surface glycoprotein CD3 epsilon chain; T3E

recombinant human DLL3 [3] = molecular target: T1, recombinant human DLL3; assay: SPR (Biacore T200), antibody captured by goat anti-Fc, DLL3 titrated; remark: listed apart in the source
[4] = molecular target: T3, DLL3 on tumor cells (SHP-77, HCC1833, G361) (human, UniProt Q9NYJ7 27-618); assay: cell-based or functional assay
T3 sequence: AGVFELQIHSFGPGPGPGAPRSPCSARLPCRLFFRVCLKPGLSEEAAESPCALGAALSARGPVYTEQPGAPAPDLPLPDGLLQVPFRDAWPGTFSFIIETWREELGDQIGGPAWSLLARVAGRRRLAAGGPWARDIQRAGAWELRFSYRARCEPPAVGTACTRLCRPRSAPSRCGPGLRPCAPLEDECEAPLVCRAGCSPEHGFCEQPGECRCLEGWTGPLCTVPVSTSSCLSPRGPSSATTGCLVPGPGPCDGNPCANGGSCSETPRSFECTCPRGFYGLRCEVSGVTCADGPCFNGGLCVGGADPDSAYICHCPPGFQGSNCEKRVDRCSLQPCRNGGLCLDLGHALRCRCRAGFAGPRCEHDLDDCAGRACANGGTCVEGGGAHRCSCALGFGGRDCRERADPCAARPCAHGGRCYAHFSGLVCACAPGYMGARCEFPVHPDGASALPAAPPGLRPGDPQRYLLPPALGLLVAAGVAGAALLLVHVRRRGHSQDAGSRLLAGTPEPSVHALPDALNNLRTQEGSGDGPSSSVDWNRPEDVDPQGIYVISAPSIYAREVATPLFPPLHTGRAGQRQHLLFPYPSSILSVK

[5] = molecular target: T4, human Kallikrein-2 6-His protein (soluble hK2) (human, UniProt P20151 18-261, limits assumed); assay: SPR, bispecific captured by anti-Fc, soluble hK2 injected
T4 construct: The assays say only 'soluble hK2' or 'human KLK2 antigen'; also called KLK2; kallikrein related peptidase 2
T4 sequence (P20151 other isoform, or with tags, fused parts or gaps limits assumed): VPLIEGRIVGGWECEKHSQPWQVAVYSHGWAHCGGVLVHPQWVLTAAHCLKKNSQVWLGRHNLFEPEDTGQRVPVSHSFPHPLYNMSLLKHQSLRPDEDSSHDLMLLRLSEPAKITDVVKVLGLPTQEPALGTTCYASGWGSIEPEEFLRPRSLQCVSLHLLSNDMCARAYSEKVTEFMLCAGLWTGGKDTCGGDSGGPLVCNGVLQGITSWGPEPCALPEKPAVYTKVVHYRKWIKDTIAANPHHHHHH

T2 sequence (P07766 23-207 limits assumed, one chain of several): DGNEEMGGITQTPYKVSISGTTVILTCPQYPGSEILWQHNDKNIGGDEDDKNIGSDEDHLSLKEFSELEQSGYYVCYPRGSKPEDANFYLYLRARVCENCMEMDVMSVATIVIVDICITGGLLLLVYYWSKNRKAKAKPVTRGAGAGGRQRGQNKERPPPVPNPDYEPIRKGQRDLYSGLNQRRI

Row | Kd (recombinant human DLL3 [1]) | binding result [2] | Kd (recombinant human DLL3 [3]) | Kd [5] | Binder | Cytotoxicity, % lysis of SHP-77 cells (whole PBMCs, 1:1 ET, 30 nM) [4]
1 | 0.024 nM | binds | 0.024 nM |  | DL3B585 (bispecific antibody, human IgG1, lambda, L234A L235A, also called CD3B376-Fab; DL3B279-LH-scFv) scFv: DIQMTQSPSSLSASVGDRVTITCRASQGISNYLAWFQQKPGKAPKSLIYAASSLQSGVPSKFSGSGSGTDFTLTISSLQPEDFATYYCQQYNSYPYTFAQGTKLEIKGGSEGKSSGSGSESKSTGGSQVQLVQSGAEVKKPGASVKVSCKASGNTFTNYYIHWVRQAPGQGLEWMGIINPSGGSTSYAQKLQGRMTMTRDTSTSTVYMELSSLRSEDTAVYFCARQGPFIGDAFDIWGQGTMVTVSSEPKSSDKTHTCPPCPAPEAAGGPSVFLFPPKPKDTLMISRTPEVTCVVVSVSHEDPEVKFNWYVDGVEVHNAKTKPREEQYNSTYRVVSVLTVLHQDWLNGKEYKCKVSNKALPAPIEKTISKAKGQPREPQVYVLPPSREEMTKNQVSLLCLVKGFYPSDIAVEWESNGQPENNYLTWPPVLDSDGSFFLYSKLTVDKSRWQQGNVFSCSVMHEALHNHYTQKSLSLS heavy: QVQLQQSGPRLVRPSQTLSLTCAISGDSVFNNNAAWSWIRQSPSRGLEWLGRTYYRSKWLYDYAVSVKSRITVNPDTSRNQFTLQLNSVTPEDTALYYCARGYSSSFDYWGQGTLVTVSSASTKGPSVFPLAPSSKSTSGGTAALGCLVKDYFPEPVTVSWNSGALTSGVHTFPAVLQSSGLYSLSSVVTVPSSSLGTQTYICNVNHKPSNTKVDKKVEPKSCDKTHTCPPCPAPEAAGGPSVFLFPPKPKDTLMISRTPEVTCVVVSVSHEDPEVKFNWYVDGVEVHNAKTKPREEQYNSTYRVVSVLTVLHQDWLNGKEYKCKVSNKALPAPIEKTISKAKGQPREPQVYVYPPSREEMTKNQVSLTCLVKGFYPSDIAVEWESNGQPENNYKTTPPVLDSDGSFALVSKLTVDKSRWQQGNVFSCSVMHEALHNHYTQKSLSLSPG light: QSALTQPASVSGSPGQSITISCTGTSSNIGTYKFVSWYQQHPDKAPKVLLYEVSKRPSGVSSRFSGSKSGNTASLTISGLQAEDQADYHCVSYAGSGTLLFGGGTKLTVLGQPKAAPSVTLFPPSSEELQANKATLVCLISDFYPGAVTVAWKADSSPVKAGVETTTPSKQSNNKYAASSYLSLTPEQWKSHRSYSCQVTHEGSTVEKTVAPTECS | 58.1%
2 |  |  |  | 0.14 nM | KL2B242 Fab (arm of a hK2/CD3 bispecific, Table 40) (bispecific antibody) chain 1: QVQLQESGPGLVKPSETLSLTCTVSGGSISSYYWSWLRQPAGSGLEWIGRLYVSGFTNYNPSLKSRVTLSLDPSRNQLSLKLSSVTAADTAVYYCAGDSGNYWGWFDPWGQGTLVTVSSASTKGPSVFPLAPSSKSTSGGTAALGCLVKDYFPEPVTVSWNSGALTSGVHTFPAVLQSSGLYSLSSVVTVPSSSLGTQTYICNVNHKPSNTKVDKKVEPKSCDKTHTCPPCPAPEAAGGPSVFLFPPKPKDTLMISRTPEVTCVVVSVSHEDPEVKFNWYVDGVEVHNAKTKPREEQYNSTYRVVSVLTVLHQDWLNGKEYKCKVSNKALPAPIEKTISKAKGQPREPQVYVLPPSREEMTKNQVSLLCLVKGFYPSDIAVEWESNGQPENNYLTWPPVLDSDGSFFLYSKLTVDKSRWQQGNVFSCSVMHEALHNHYTQKSLSLSPG chain 2: SYELTQPPSVSVSPGETASITCSGDQLGENYASWYQQKPGQSPVLVIYQDSKRPSGIPERFSGSNSGNTATLTISGTQALDEADYYCQAWDNSIVVFGGGTKLTVLGQPKAAPSVTLFPPSSEELQANKATLVCLISDFYPGAVTVAWKADSSPVKAGVETTTPSKQSNNKYAASSYLSLTPEQWKSHRSYSCQVTHEGSTVEKTVAPTECS chain 3: DIQMTQSPSSLSASVGDRVTITCRARQSIGTAIHWYQQKPGKAPKLLIKYASESISGVPSRFSGSGSGTDFTLTISSLQPEDFATYYCQQSGSWPYTFGQGTKLEIKGGSEGKSSGSGSESKSTGGSEVQLVESGGGLVKPGGSLRLSCAASGFTFSRYNMNWVRQAPGKGLEWVSSISTSSNYIYYADSVKGRFTFSRDNAKNSLDLQMSGLRAEDTAIYYCTRGWGPFDYWGQGTLVTVSSEPKSSDKTHTCPPCPAPEAAGGPSVFLFPPKPKDTLMISRTPEVTCVVVSVSHEDPEVKFNWYVDGVEVHNAKTKPREEQYNSTYRVVSVLTVLHQDWLNGKEYKCKVSNKALPAPIEKTISKAKGQPREPQVYVYPPSREEMTKNQVSLTCLVKGFYPSDIAVEWESNGQPENNYKTTPPVLDSDGSFALVSKLTVDKSRWQQGNVFSCSVMHEALHNHYTQKSLSLSPG | 
